Reference: US20260250421A1 (BIOCYTOGEN PHARMACEUTICALS BEIJING, published 2026)

T1: His-tagged dog PTK7 protein (dog, UniProt Q13308 31-703 (human entry))
T1 construct: also called dPTK7-His
T1 chain: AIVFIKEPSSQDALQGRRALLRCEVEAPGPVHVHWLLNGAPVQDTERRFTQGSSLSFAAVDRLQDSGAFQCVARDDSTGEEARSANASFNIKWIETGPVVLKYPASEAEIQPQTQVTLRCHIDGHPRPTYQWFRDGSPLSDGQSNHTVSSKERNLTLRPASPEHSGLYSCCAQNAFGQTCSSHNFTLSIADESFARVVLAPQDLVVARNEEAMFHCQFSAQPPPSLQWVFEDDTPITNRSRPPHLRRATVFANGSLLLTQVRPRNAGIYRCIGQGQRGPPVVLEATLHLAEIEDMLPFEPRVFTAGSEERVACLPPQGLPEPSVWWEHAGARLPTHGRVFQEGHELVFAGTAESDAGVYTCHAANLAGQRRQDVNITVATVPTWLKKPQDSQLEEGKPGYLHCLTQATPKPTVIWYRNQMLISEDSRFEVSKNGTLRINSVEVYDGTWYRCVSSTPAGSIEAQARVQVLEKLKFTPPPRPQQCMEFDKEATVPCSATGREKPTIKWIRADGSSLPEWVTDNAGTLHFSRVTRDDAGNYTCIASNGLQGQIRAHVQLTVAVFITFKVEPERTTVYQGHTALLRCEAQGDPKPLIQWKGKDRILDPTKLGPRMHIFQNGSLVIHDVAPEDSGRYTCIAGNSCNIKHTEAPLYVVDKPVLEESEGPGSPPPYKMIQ

T2: His-tagged cynomolgus monkey PTK7 protein (cynomolgus monkey, UniProt A0A2K5VNI5 39-712)
T2 construct: Bought protein; also called cPTK7-His; ACRO Biosystems Cat# PT7-C52H3; not shown: His tag
T2 sequence: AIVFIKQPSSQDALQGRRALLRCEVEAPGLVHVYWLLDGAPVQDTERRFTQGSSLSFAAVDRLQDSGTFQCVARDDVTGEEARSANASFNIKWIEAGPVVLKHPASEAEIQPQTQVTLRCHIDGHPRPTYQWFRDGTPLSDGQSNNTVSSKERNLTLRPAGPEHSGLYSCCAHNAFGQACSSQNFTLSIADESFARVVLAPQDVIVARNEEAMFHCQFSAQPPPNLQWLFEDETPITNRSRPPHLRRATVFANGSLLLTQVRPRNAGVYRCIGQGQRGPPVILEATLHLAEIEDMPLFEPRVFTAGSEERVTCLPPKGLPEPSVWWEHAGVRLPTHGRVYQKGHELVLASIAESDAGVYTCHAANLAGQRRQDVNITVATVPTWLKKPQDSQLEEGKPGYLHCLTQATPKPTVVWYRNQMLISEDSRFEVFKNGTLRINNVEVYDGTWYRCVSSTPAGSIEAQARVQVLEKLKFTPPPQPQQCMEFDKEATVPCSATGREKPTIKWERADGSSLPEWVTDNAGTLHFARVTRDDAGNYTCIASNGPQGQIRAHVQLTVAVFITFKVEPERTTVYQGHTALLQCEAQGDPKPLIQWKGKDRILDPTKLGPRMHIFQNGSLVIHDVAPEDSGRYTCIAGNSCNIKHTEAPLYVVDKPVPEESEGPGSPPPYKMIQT

T3: His-tagged human PTK7 protein (human, UniProt Q13308 31-704)
T3 construct: Bought protein; also called hPTK7-His; not shown: His tag
T3 sequence: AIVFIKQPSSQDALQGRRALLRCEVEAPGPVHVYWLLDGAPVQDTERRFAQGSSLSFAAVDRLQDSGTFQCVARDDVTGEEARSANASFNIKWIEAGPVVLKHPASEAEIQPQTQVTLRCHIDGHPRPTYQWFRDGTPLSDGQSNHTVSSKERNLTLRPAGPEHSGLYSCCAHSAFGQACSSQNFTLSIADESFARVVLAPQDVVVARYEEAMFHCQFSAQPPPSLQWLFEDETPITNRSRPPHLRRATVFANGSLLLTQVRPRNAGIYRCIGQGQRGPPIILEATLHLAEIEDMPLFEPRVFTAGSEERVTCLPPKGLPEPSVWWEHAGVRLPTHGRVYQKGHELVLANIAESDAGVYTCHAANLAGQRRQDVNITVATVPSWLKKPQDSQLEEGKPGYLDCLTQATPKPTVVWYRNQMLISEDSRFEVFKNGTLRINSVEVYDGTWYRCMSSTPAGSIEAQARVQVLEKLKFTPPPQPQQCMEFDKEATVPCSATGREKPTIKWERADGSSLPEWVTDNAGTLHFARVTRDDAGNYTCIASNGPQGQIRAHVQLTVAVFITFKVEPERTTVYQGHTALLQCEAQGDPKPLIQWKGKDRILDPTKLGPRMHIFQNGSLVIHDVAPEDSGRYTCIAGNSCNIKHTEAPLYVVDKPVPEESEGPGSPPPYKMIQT


Legend:
Test in all cases: SPR Biacore 8K, Ab on Protein A chip
[1] = target: T1, His-tagged dog PTK7 protein
Experimental: (§1) Purified anti-PTK7 antibodies were diluted to 1 μg/mL and then injected into the Biacore™ 8K biosensor at 10 μL/min for about 50 seconds to achieve a desired protein density (e.g., about 50 response units (RU)). The His-tagged PTK7 protein at a concentration of 200 nM or 0 nM was then injected at 30 μL/min for 180 seconds. Dissociation was monitored for 400 seconds. The chip was regenerated after the last injection of each titration with glycine (pH 2.0, 30 μL/min for 30 seconds).

[2] = target: T2, His-tagged cynomolgus monkey PTK7 …
Experimental: as §1

[3] = target: T3, His-tagged human PTK7 protein
Experimental: as §1

Binder | Kd [1] [nM] | koff [1] [s⁻¹] | kon [1] [M⁻¹ s⁻¹] | Kd [2] [nM] | koff [2] [s⁻¹] | kon [2] [M⁻¹ s⁻¹] | Kd [3] [nM] | koff [3] [s⁻¹] | kon [3] [M⁻¹ s⁻¹]
1A11 (antibody, V domains shown, also called anti-PTK7 antibody 1A11) VH: QVQLVQSGPGLVKPSETLSLTCTVSGGSINSYYWNWIRQPPGKGLEWIGYIYYSGSTNYNPSLKSRVTISVDTSKNQFSLKLSSVTAADTAVYYCARDPHDYIRGHFDLWGRGTLFTVSS VL: not shown | 14.5 | 0.00123 | 84600 | 18.4 | 0.00131 | 71200 | 41 | 0.00318 | 77600
3C4 (antibody, V domains shown, also called anti-PTK7 antibody 3C4) VH: QVQLEQSRAEVKKPGESLRISCKGSGYSFTSYWISWVRQMPGKGLEWMGRIDPSDSYTNYNPSFQGHVTISADKSISTAYLQWSSLKASDTAMYYCARRDGSYFDFDYWGQGTLVTVSS VL: not shown | 8.48 | 0.00399 | 471000 | 23.2 | 0.00187 | 80600 | 25.4 | 0.00237 | 93200
1F2 (antibody, V domains shown, also called anti-PTK7 antibody 1F2) VH: QVQLVQSGGGLVQPGGSLRLSCAASGFTFSRYEMNWVRQAPGKGLEWVSYINSIGSAINYADSVKGRFTISRDNAKNSLYLQMRSLRAEDTAVYYCVREDNWNPGYWGQGTLVTVSS VL: not shown | 21.2 | 0.00927 | 437000 | 30.2 | 0.00949 | 314000 | 69.8 | 0.012 | 172000
1A7 (antibody, human IgG1, V domains shown, also called anti-PTK7 antibody 1A7) VH: QVQLVESGGGVVQPGRSLRLSCAASGFTFSNYGMHWVRQAPGKGLEWVAVIYYDGSNKFYADSVKGRFTISRDNSKNTLYLQMSSLRAEDTAVYYCARDVAPPGSRAEYFHHWGQGTLVTVSS VL: not shown | 2.3 | 0.000133 | 58000 | 17.9 | 0.000733 | 41100 | 40.9 | 0.00425 | 104000
2A5 (antibody, V domains shown, also called anti-PTK7 antibody 2A5) VH: QVQLVQSGGGVVQPGRSLRLSCAASGFTFSNYGMHWVRQAPGKGLEWVAVIWYDGRNKYYADSVKGRFTISRDNSKNTLYLQMNSLRAEDTAVYYCARDVAPAGSRAEYFQNWGQGTLVTVSS VL: not shown | 3.43 | 0.000167 | 48600 | 10.8 | 0.000439 | 40700 | 25.9 | 0.00281 | 108000

The next lines start with the values.

Kd [1] [nM] | koff [1] [s⁻¹] | kon [1] [M⁻¹ s⁻¹] | Kd [2] [nM] | koff [2] [s⁻¹] | kon [2] [M⁻¹ s⁻¹] | Kd [3] [nM] | koff [3] [s⁻¹] | kon [3] [M⁻¹ s⁻¹] | Binder
11.6 | 0.00171 | 147000 | 3.95 | 0.000481 | 122000 | 3.44 | 0.000454 | 132000 | 3E6 (antibody, V domains shown, also called anti-PTK7 antibody 3E6) VH: QVQLVESGAEVKKPGESLRISCRGSGYSFTSYWISWVRQMPGKGLEWMGRIDPSDSYTKYSPSFQGHVTISADKSISTAYLQWSSLKASDTAMYYCARRDGDYFDFDYWGQGTLVTVSS VL: not shown
0.898 | 5.47e-05 | 60900 | 3.08 | 0.000177 | 57400 | 8.11 | 0.000249 | 30600 | 2D11 (antibody, V domains shown, also called anti-PTK7 antibody 2D11) VH: QVQLVESGGGVVQPGRSLRLSCAASGFTFSSYGMHWVRQAPGKGLEWVAVIFYDGSNKYYADSVKGRFTISRDNSKNTLYLQMNSLRAEDTSVYYCARDVAAPGSRAEYFQNWGQGTLVTVSS VL: not shown
11.1 | 0.000563 | 50700 | 35.2 | 0.00146 | 41600 | 109 | 0.00388 | 35600 | 2F5 (antibody, V domains shown, also called anti-PTK7 antibody 2F5) VH: QVQLVESGGGVVQPGRSLRLSCVASGFTFSNYGMHWVRQAPGKGLEWVAIIYYDGSNKYYADSVKGRFTISRDNSKNTLYLQMNSLRAEDTAVYYCARDVAAAGSRAEYLHHWGQGTLVTVSS VL: not shown
